B1: Tri6-3 (dsDNA)
DNA 1: GGCAGGCCTGACAGGAGTGATAAAATGTGAGAAGAG
DNA 2: CTCTTCTCACATTTTATCACTCCTGTCAGGCCTGCC
B2: Tri6-2 (dsDNA)
DNA 1: CTCAGCAGGATGAACAAGGGGTCTGAAAGGCCTGGC
DNA 2: GCCAGGCCTTTCAGACCCCTTGTTCATCCTGCTGAG
B3: Tri6-1 (dsDNA)
DNA 1: GGGTCTGAAAGGCCTGGCAGGCCTGACAGGAGTG
DNA 2: CACTCCTGTCAGGCCTGCCAGGCCTTTCAGACCC

This series has as its target Tri6 (Fusarium graminearum (PH-1; NRRL 31084?), UniProt Q9C1A9 1-218). Briefly: EMSA. To be noted: protein: recombinant; tags: His (pDEST17; Methods EMSA text says Tri6-HA recombinant protein); label: 32P 5' end. In general terms: Mobility shift assays separate free from complexed probe on a gel.
On to B1, for which the binding result is given as “binds”.

For the molecule B2, the binding result is given as “no binding”.

On to B3, for which the binding result was “no binding”.
